Experimental data published in the supplement of paper PMC9112550, “Optimization of the antimicrobial peptide Bac7 by deep mutational scanning” (BMC Biology, 2022).

Test system: Escherichia coli TOP10
Assay: shrunken log2 fold change of peptide-encoding DNA abundance (4.5 h post-induction vs induction); higher = less antimicrobial activity (less host growth inhibition)
Settings: time post-induction: 4.5 h; library: site-saturation at positions 5, 18, 19, 20
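Further: peptides expressed intracellularly from a pBAD plasmid library in pooled LB shake-flask culture, induced with 0.3% L-arabinose, DNA abundance read by NGS, three biological replicates, DESeq2 with apeglm shrinkage.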

## RRIRYRPPRLPRPRPRPLEMPRP
  shrunken log2 fold change: -0.0768

## RRIRHRPPRLPRPRPRPLERPRP
  shrunken log2 fold change: -0.0962

## RRIRIRPPRLPRPRPRPYKFPRP
  shrunken log2 fold change: -0.616

## RRIRIRPPRLPRPRPRPEWFPRP
  shrunken log2 fold change: 0.00757

## RRIRCRPPRLPRPRPRPKFIPRP
  shrunken log2 fold change: -0.653

## RRIRSRPPRLPRPRPRPILYPRP
  shrunken log2 fold change: -0.481

## RRIRWRPPRLPRPRPRPGGNPRP
  shrunken log2 fold change: 0.0972

## RRIRSRPPRLPRPRPRPCTVPRP
  shrunken log2 fold change: -0.253

## RRIRARPPRLPRPRPRPKDQPRP
  shrunken log2 fold change: 0.504

## RRIRARPPRLPRPRPRPEENPRP
  shrunken log2 fold change: 1.26

## RRIRKRPPRLPRPRPRPARDPRP
  shrunken log2 fold change: 1.1

## RRIRSRPPRLPRPRPRPRIDPRP
  shrunken log2 fold change: 0.0938

## RRIRPRPPRLPRPRPRPTCGPRP
  shrunken log2 fold change: -0.0302

## RRIRSRPPRLPRPRPRPDWKPRP
  shrunken log2 fold change: -0.0322

## RRIRIRPPRLPRPRPRPLGSPRP
  shrunken log2 fold change: -0.41

## RRIRIRPPRLPRPRPRPHCMPRP
  shrunken log2 fold change: -0.697

## RRIRVRPPRLPRPRPRPCIKPRP
  shrunken log2 fold change: -0.592

## RRIRCRPPRLPRPRPRPFIPPRP
  shrunken log2 fold change: -0.976

## RRIRIRPPRLPRPRPRPTRDPRP
  shrunken log2 fold change: -0.0265

## RRIRWRPPRLPRPRPRPSCQPRP
  shrunken log2 fold change: 0.232

## RRIRNRPPRLPRPRPRPIAIPRP
  shrunken log2 fold change: -0.0153

## RRIRQRPPRLPRPRPRPFPFPRP
  shrunken log2 fold change: -0.00711

## RRIRLRPPRLPRPRPRPMDSPRP
  shrunken log2 fold change: -0.172

## RRIRIRPPRLPRPRPRPIWPPRP
  shrunken log2 fold change: 0.155

## RRIRTRPPRLPRPRPRPSYCPRP
  shrunken log2 fold change: 0.0739

## RRIRARPPRLPRPRPRPNVYPRP
  shrunken log2 fold change: -0.115

## RRIRDRPPRLPRPRPRPGCSPRP
  shrunken log2 fold change: 0.278

## RRIRERPPRLPRPRPRPYENPRP
  shrunken log2 fold change: 0.0288

## RRIRYRPPRLPRPRPRPQIHPRP
  shrunken log2 fold change: -1.2

## RRIRTRPPRLPRPRPRPCCNPRP
  shrunken log2 fold change: -0.282

## RRIRVRPPRLPRPRPRPRWYPRP
  shrunken log2 fold change: -0.232

## RRIRLRPPRLPRPRPRPHACPRP
  shrunken log2 fold change: 0.0658

## RRIRARPPRLPRPRPRPEPHPRP
  shrunken log2 fold change: 0.374

## RRIRWRPPRLPRPRPRPTVWPRP
  shrunken log2 fold change: 0.533

## RRIRVRPPRLPRPRPRPNWSPRP
  shrunken log2 fold change: -0.114

## RRIRGRPPRLPRPRPRPHRQPRP
  shrunken log2 fold change: 0.0397

## RRIRMRPPRLPRPRPRPYSHPRP
  shrunken log2 fold change: -0.352

## RRIRNRPPRLPRPRPRPLSNPRP
  shrunken log2 fold change: -0.386

## RRIRHRPPRLPRPRPRPDMHPRP
  shrunken log2 fold change: -0.329

## RRIRYRPPRLPRPRPRPPDTPRP
  shrunken log2 fold change: -0.425

## RRIRCRPPRLPRPRPRPTMRPRP
  shrunken log2 fold change: 0.529

## RRIRERPPRLPRPRPRPPNRPRP
  shrunken log2 fold change: -0.289

## RRIRPRPPRLPRPRPRPANWPRP
  shrunken log2 fold change: 0.22

## RRIRFRPPRLPRPRPRPMFYPRP
  shrunken log2 fold change: -1.51

## RRIRARPPRLPRPRPRPLAFPRP
  shrunken log2 fold change: 0.703

## RRIRDRPPRLPRPRPRPIPTPRP
  shrunken log2 fold change: 0.00396

## RRIRIRPPRLPRPRPRPSWDPRP
  shrunken log2 fold change: -0.462

## RRIRMRPPRLPRPRPRPTPDPRP
  shrunken log2 fold change: 1.39

## RRIRQRPPRLPRPRPRPEFKPRP
  shrunken log2 fold change: -0.0763

## RRIRERPPRLPRPRPRPLEEPRP
  shrunken log2 fold change: 0.239

## RRIRQRPPRLPRPRPRPVMFPRP
  shrunken log2 fold change: -0.0919

## RRIRTRPPRLPRPRPRPDQYPRP
  shrunken log2 fold change: -0.0122

## RRIRLRPPRLPRPRPRPCCPPRP
  shrunken log2 fold change: -0.196

## RRIRQRPPRLPRPRPRPTKWPRP
  shrunken log2 fold change: 0.25

## RRIRCRPPRLPRPRPRPLNFPRP
  shrunken log2 fold change: -0.0754

## RRIRGRPPRLPRPRPRPCQVPRP
  shrunken log2 fold change: 0.224

## RRIRIRPPRLPRPRPRPGMPPRP
  shrunken log2 fold change: -0.0857

## RRIRARPPRLPRPRPRPRKDPRP
  shrunken log2 fold change: 0.173

## RRIRCRPPRLPRPRPRPLNLPRP
  shrunken log2 fold change: -0.489

## RRIRSRPPRLPRPRPRPVIGPRP
  shrunken log2 fold change: 0.0912

## RRIRERPPRLPRPRPRPCNEPRP
  shrunken log2 fold change: -1.12

## RRIRQRPPRLPRPRPRPSLCPRP
  shrunken log2 fold change: -0.0894

## RRIRHRPPRLPRPRPRPFWIPRP
  shrunken log2 fold change: -0.364

## RRIRCRPPRLPRPRPRPIADPRP
  shrunken log2 fold change: -0.107

## RRIRVRPPRLPRPRPRPNRQPRP
  shrunken log2 fold change: -0.326

## RRIRFRPPRLPRPRPRPTREPRP
  shrunken log2 fold change: 0.599

## RRIRDRPPRLPRPRPRPDVKPRP
  shrunken log2 fold change: -0.00748

## RRIRIRPPRLPRPRPRPYHDPRP
  shrunken log2 fold change: -0.28

## RRIRRRPPRLPRPRPRPMCFPRP
  shrunken log2 fold change: -0.0162

## RRIRLRPPRLPRPRPRPRWNPRP
  shrunken log2 fold change: -0.0729

## RRIRCRPPRLPRPRPRPIYQPRP
  shrunken log2 fold change: -0.306

## RRIRSRPPRLPRPRPRPHCDPRP
  shrunken log2 fold change: -0.38

## RRIRKRPPRLPRPRPRPTNKPRP
  shrunken log2 fold change: 0.14

## RRIRARPPRLPRPRPRPAEYPRP
  shrunken log2 fold change: -0.0257

## RRIRARPPRLPRPRPRPMNLPRP
  shrunken log2 fold change: -0.313

## RRIRYRPPRLPRPRPRPVLNPRP
  shrunken log2 fold change: -0.258

## RRIRNRPPRLPRPRPRPHQQPRP
  shrunken log2 fold change: 0.317

## RRIRGRPPRLPRPRPRPHMPPRP
  shrunken log2 fold change: -0.0535

## RRIRHRPPRLPRPRPRPAWNPRP
  shrunken log2 fold change: 0.287

## RRIRIRPPRLPRPRPRPPDGPRP
  shrunken log2 fold change: 1.84

## RRIRKRPPRLPRPRPRPAFKPRP
  shrunken log2 fold change: -0.0132

## RRIRQRPPRLPRPRPRPIWYPRP
  shrunken log2 fold change: 0.0288

## RRIRRRPPRLPRPRPRPHYMPRP
  shrunken log2 fold change: -0.126

## RRIRMRPPRLPRPRPRPYCLPRP
  shrunken log2 fold change: 0.146

## RRIRSRPPRLPRPRPRPICCPRP
  shrunken log2 fold change: -0.0929

## RRIRPRPPRLPRPRPRPMNGPRP
  shrunken log2 fold change: 0.137

## RRIRLRPPRLPRPRPRPQPDPRP
  shrunken log2 fold change: -0.161

## RRIRDRPPRLPRPRPRPRSGPRP
  shrunken log2 fold change: 0.276

## RRIRDRPPRLPRPRPRPDGRPRP
  shrunken log2 fold change: 0.655

## RRIRMRPPRLPRPRPRPINGPRP
  shrunken log2 fold change: 0.0854

## RRIRDRPPRLPRPRPRPFCLPRP
  shrunken log2 fold change: 0.0132

## RRIRMRPPRLPRPRPRPQYFPRP
  shrunken log2 fold change: 0.00454

## RRIRQRPPRLPRPRPRPKLYPRP
  shrunken log2 fold change: -0.0149

## RRIRNRPPRLPRPRPRPYAQPRP
  shrunken log2 fold change: -0.55

## RRIRRRPPRLPRPRPRPQMHPRP
  shrunken log2 fold change: 0.354

## RRIRMRPPRLPRPRPRPQNWPRP
  shrunken log2 fold change: 0.532

## RRIRKRPPRLPRPRPRPLWIPRP
  shrunken log2 fold change: 0.134

## RRIRRRPPRLPRPRPRPGCPPRP
  shrunken log2 fold change: 0.414

## RRIRFRPPRLPRPRPRPTCSPRP
  shrunken log2 fold change: -0.0827

## RRIRVRPPRLPRPRPRPFEHPRP
  shrunken log2 fold change: -0.00133

## RRIRMRPPRLPRPRPRPVKFPRP
  shrunken log2 fold change: 0.0501

## RRIRCRPPRLPRPRPRPGYIPRP
  shrunken log2 fold change: -0.258

## RRIRFRPPRLPRPRPRPNTYPRP
  shrunken log2 fold change: -0.499

## RRIRERPPRLPRPRPRPTARPRP
  shrunken log2 fold change: 0.258

## RRIRVRPPRLPRPRPRPSLPPRP
  shrunken log2 fold change: -0.226

## RRIRSRPPRLPRPRPRPIQAPRP
  shrunken log2 fold change: -0.0793

## RRIRIRPPRLPRPRPRPINCPRP
  shrunken log2 fold change: -0.0883

## RRIRVRPPRLPRPRPRPGLDPRP
  shrunken log2 fold change: 0.0777

## RRIRYRPPRLPRPRPRPVALPRP
  shrunken log2 fold change: -0.404

## RRIRMRPPRLPRPRPRPHCQPRP
  shrunken log2 fold change: -0.0624

## RRIRNRPPRLPRPRPRPWVYPRP
  shrunken log2 fold change: -0.0702

## RRIRYRPPRLPRPRPRPKQQPRP
  shrunken log2 fold change: -0.0891

## RRIRIRPPRLPRPRPRPASTPRP
  shrunken log2 fold change: -0.0836

## RRIRWRPPRLPRPRPRPQSNPRP
  shrunken log2 fold change: -0.124

## RRIRERPPRLPRPRPRPSDCPRP
  shrunken log2 fold change: 0.00151

## RRIRFRPPRLPRPRPRPMEQPRP
  shrunken log2 fold change: -0.00146

## RRIRARPPRLPRPRPRPMDWPRP
  shrunken log2 fold change: 0.341

## RRIRPRPPRLPRPRPRPLEIPRP
  shrunken log2 fold change: -0.199

## RRIRRRPPRLPRPRPRPNGCPRP
  shrunken log2 fold change: 0.00793

## RRIRERPPRLPRPRPRPLSKPRP
  shrunken log2 fold change: -0.579

## RRIRFRPPRLPRPRPRPRLGPRP
  shrunken log2 fold change: 0.347

## RRIRKRPPRLPRPRPRPKEPPRP
  shrunken log2 fold change: 0.074

## RRIRRRPPRLPRPRPRPFHKPRP
  shrunken log2 fold change: 0.0306

## RRIRSRPPRLPRPRPRPGYIPRP
  shrunken log2 fold change: -0.0571

## RRIRYRPPRLPRPRPRPAKDPRP
  shrunken log2 fold change: -0.151
